Assay results from the supplement of paper PMC10065799, “High-throughput profiling of sequence recognition by tyrosine kinases and SH2 domains using bacterial peptide display” (eLife, 2023).

Tests used:
Fes = Fes (UniProt P07332); experiment: phosphorylation enrichment, bacterial display (enrichment ratio); higher = better substrate or ligand; peptides without Tyr show the background
AncSZ = experiment: as above
MERTK = MERTK (UniProt Q12866); experiment: as above
FGFR3 = FGFR3 (UniProt P22607); experiment: as above
Jak2 = Jak2 (UniProt O60674); experiment: as above
Fer (mouse) = experiment: as above
c-Src = experiment: as above
Fyn = Fyn (UniProt P06241); experiment: as above
Hck = Hck (UniProt P08631); experiment: as above
FGFR1 = FGFR1 (UniProt P11362); experiment: as above
EPHB1 = EPHB1 (UniProt P54762); experiment: as above
c-Abl (mouse) = experiment: as above
EPHB2 = EPHB2 (UniProt P29323); experiment: as above
SHP2-C SH2 = experiment: SH2 binding enrichment of the phosphorylated peptide, bacterial display (enrichment ratio); higher = better substrate or ligand; peptides without Tyr show the background
c-Src SH2 = experiment: as above
Grb2 SH2 = Grb2 SH2 (UniProt P62993); experiment: as above
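For SH2 binding enrichment of the phosphorylated peptide, bacterial display in this document: peptide library displayed on the E. coli surface as eCPX fusions, selected cells deep-sequenced, score is each peptide's frequency after selection divided by its frequency in the input.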
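For phosphorylation enrichment, bacterial display in this document: 11-residue human phosphosite peptides and single-mutation variants displayed on the E. coli surface, counted by deep sequencing, each peptide's frequency after selection divided by its frequency in the unselected input library; frequency after pTyr selection over input frequency; kinase dosed for 20-30% of maximal phosphorylation in three min.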

Fes, sequence (P07332 whole entry, looked up): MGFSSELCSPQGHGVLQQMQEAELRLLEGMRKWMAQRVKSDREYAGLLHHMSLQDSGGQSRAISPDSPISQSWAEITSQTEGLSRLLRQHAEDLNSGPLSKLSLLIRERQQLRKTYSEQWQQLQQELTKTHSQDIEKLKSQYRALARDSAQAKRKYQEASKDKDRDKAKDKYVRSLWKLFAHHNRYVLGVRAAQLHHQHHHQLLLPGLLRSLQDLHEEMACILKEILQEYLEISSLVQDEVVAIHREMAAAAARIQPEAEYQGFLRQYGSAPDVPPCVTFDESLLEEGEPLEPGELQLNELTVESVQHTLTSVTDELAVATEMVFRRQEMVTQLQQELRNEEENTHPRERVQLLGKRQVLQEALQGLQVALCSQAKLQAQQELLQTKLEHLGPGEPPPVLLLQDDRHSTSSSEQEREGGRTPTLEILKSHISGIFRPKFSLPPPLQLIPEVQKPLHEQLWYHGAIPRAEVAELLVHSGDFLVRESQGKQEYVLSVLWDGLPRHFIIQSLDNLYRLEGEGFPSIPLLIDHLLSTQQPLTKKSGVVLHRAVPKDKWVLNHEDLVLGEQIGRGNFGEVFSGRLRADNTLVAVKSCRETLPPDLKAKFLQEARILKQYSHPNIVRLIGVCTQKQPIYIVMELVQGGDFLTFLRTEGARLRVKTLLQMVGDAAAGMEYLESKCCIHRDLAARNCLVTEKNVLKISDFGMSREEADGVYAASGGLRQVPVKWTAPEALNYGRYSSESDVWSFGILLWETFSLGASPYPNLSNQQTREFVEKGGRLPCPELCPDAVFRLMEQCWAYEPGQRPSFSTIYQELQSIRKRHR
Jak2, sequence (O60674 whole entry, looked up): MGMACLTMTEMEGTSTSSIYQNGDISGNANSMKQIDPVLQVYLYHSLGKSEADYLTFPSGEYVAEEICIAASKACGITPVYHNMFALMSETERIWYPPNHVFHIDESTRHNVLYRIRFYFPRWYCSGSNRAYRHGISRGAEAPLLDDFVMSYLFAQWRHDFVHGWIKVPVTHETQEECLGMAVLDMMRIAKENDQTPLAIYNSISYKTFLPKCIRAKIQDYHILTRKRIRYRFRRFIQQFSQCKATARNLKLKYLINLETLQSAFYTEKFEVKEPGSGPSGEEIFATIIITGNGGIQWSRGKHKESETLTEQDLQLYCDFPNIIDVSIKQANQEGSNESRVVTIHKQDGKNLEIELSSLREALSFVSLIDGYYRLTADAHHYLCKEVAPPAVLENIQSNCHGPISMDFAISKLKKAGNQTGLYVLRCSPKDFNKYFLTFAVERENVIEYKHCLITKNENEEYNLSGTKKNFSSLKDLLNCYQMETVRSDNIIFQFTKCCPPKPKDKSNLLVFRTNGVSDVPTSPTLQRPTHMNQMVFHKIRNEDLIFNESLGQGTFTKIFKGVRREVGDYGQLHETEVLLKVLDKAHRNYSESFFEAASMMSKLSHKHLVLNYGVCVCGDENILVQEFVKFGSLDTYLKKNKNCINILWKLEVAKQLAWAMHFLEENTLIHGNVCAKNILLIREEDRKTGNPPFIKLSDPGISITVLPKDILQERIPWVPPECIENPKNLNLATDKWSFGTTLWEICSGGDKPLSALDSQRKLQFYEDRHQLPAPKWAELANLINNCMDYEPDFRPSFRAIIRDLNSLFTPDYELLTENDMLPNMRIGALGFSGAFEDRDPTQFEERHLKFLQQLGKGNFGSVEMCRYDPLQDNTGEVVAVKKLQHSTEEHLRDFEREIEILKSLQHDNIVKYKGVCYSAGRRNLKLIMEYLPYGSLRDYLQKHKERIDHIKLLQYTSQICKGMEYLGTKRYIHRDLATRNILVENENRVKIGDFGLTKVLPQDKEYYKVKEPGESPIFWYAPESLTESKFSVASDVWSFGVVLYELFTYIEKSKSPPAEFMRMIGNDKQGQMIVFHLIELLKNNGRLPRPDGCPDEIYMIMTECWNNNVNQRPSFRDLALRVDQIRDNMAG
FGFR1, sequence (P11362 whole entry, looked up): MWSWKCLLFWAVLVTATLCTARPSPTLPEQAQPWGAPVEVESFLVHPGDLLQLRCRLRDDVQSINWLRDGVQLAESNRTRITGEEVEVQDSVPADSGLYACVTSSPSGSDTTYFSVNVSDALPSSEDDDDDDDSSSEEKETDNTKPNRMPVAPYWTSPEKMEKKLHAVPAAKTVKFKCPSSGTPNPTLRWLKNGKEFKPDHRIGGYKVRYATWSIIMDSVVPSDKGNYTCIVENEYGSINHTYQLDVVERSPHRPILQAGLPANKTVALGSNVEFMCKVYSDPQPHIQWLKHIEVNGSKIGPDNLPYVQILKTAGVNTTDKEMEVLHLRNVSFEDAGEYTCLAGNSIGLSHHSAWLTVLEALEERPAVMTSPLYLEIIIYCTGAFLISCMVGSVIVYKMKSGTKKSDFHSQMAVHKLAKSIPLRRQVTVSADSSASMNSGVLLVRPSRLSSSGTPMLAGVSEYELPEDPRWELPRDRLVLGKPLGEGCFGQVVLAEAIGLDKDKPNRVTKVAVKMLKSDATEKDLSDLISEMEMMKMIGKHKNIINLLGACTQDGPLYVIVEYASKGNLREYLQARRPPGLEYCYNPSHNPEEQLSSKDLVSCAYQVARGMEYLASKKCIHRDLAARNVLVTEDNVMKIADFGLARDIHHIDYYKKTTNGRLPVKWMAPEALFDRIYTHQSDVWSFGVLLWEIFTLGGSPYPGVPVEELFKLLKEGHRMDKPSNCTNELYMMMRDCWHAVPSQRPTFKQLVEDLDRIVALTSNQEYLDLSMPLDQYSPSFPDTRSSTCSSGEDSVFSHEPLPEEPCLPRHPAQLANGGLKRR
MERTK, sequence (Q12866 whole entry, looked up): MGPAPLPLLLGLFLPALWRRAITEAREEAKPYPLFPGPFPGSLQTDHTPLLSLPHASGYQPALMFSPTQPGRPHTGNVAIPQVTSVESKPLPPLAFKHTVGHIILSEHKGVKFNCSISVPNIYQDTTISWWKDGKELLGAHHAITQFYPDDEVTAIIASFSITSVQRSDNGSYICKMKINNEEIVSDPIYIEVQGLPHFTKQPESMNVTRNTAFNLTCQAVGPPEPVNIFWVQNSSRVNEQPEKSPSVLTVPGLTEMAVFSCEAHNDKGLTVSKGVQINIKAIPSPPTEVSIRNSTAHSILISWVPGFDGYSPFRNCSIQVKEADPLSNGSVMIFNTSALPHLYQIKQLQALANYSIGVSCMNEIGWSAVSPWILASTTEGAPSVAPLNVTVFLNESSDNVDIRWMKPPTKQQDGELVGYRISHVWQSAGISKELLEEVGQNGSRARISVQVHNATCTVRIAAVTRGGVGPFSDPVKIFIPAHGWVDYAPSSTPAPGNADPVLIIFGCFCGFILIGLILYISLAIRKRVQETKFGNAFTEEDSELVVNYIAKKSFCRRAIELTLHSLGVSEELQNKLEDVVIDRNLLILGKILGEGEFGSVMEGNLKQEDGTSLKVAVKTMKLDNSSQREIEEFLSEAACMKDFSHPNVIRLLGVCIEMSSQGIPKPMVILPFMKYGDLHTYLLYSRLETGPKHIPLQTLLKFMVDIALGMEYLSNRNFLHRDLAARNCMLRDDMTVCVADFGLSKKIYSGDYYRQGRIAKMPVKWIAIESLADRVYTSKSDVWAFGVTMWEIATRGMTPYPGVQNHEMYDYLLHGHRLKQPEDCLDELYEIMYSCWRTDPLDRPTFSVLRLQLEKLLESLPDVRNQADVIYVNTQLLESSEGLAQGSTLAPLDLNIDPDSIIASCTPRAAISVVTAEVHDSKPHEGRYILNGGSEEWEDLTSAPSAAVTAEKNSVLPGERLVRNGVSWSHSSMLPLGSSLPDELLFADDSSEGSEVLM
Fyn, sequence (P06241 whole entry, looked up): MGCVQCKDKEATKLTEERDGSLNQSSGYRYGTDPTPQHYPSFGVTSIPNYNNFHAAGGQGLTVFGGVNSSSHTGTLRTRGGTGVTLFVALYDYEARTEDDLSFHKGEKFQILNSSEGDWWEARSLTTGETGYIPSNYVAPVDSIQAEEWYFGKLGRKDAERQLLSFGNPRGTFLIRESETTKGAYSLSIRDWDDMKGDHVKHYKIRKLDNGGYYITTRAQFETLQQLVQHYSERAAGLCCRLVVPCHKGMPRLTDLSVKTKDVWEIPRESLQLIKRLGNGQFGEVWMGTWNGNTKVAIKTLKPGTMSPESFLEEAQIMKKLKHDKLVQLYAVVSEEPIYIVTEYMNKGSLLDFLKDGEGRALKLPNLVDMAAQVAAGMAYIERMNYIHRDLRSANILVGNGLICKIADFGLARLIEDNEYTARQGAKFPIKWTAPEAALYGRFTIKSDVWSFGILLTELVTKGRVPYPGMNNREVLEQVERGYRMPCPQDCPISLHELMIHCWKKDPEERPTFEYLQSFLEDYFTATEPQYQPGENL
Hck, sequence (P08631 whole entry, looked up): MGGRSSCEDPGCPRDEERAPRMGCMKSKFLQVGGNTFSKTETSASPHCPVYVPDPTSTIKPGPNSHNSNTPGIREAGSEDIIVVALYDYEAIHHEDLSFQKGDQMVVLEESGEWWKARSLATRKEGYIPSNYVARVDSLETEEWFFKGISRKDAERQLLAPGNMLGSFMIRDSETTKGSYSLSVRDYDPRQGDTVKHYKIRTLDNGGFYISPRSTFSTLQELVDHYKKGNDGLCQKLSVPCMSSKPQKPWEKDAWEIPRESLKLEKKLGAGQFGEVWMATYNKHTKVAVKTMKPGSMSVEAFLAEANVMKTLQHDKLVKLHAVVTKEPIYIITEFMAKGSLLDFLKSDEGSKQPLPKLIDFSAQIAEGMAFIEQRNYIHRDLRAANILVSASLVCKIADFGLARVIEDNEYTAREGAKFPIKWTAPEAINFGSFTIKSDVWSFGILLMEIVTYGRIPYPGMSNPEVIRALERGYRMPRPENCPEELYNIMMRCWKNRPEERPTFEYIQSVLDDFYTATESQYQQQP

Sequence	SH2 binding enrichment (SHP2-C SH2)	SH2 binding enrichment (c-Src SH2)	SH2 binding enrichment (Grb2 SH2)	phosphorylation enrichment (Fes)	phosphorylation enrichment (AncSZ)	phosphorylation enrichment (MERTK)	phosphorylation enrichment (FGFR3)	phosphorylation enrichment (Jak2)	phosphorylation enrichment (Fer (mouse))	phosphorylation enrichment (c-Src)	phosphorylation enrichment (Fyn)	phosphorylation enrichment (Hck)	phosphorylation enrichment (FGFR1)	phosphorylation enrichment (EPHB1)	phosphorylation enrichment (c-Abl (mouse))	phosphorylation enrichment (EPHB2)
RLLRGHDQFAF [HLA-B_Y137_YF]	0.724	0.748	1.06	0.554	0.388	0.34	0.472	1.07	0.316	0.505	0.289	0.405	0.309	0.327	0.716	0.32
VKKKLYEEIDQ [CYP17A1_Y329]	0.412	8.78	0.758	0.98	0.924	0.347	0.601	0.764	0.372	0.361	0.373	0.493	0.444	0.535	0.66	0.541
HEVHIYENSGA [ARPC1B_Y35_K37N]	1.03	6.64	12.4	2.27	1.44	0.826	0.892	1.31	1.26	0.865	1.04	1.62	0.703	1.38	1.32	1.28
SDLTDYLMKIL [ACTA1_Y190_R185S]	0.903	0.608	1.16	1.22	1.14	0.445	0.732	1.1	0.582	0.507	0.535	0.571	0.532	0.578	0.789	0.648
LLANAYIFDVQ [L1CAM_Y418_V421D_YF]	0.99	0.913	1.15	1.84	1.73	0.718	1.17	1.73	0.755	1.03	1.09	0.598	0.874	0.933	0.896	0.838
VRFMAYTDETC [F8_Y450_F455C]	1.03	0.627	0.83	1.3	1.11	0.431	0.773	1.05	0.522	0.413	0.403	0.662	0.544	0.649	0.973	0.59
NTFEKYWPFFQ [GATM_Y103_YF]	1.24	0.926	1.5	1.09	0.987	0.886	1.08	0.898	0.429	0.935	0.69	1.42	1.08	0.488	0.795	0.512
QEGPEYWDEET [HLA-A_Y83_Q86E]	0.699	0.646	0.91	1.88	2.5	1.07	1.33	1.38	0.951	0.796	1.02	1.05	1.24	1.25	1.32	1.25
RHSGSYFVTSV [APC_Y2838_L2839F]	0.499	0.547	0.787	0.845	0.895	0.676	0.565	0.89	0.444	0.785	0.598	0.591	0.574	0.517	0.741	0.654
SQQTFYPVSNM [ABCD1_Y181_R182P_YF]	0.644	0.466	0.881	0.654	0.706	0.374	0.513	0.598	0.318	0.398	0.419	0.407	0.507	0.387	0.57	0.49
ALLTKYSRSSM [DSCC1_Y374_H376R]	0.615	0.589	0.847	0.744	0.617	0.552	0.554	0.816	0.442	0.524	0.465	0.384	0.579	0.505	0.697	0.535
KVKPIYLHTQG [AR_Y916_F917L]	1.84	1.65	1.71	0.728	0.687	0.54	0.612	0.61	0.438	0.402	0.405	0.39	0.441	0.496	0.736	0.457
ARAFIYAIIPA [ACKtide_2014]	0.777	0.764	1.03	1.46	1.4	6.87	1.1	1.86	0.81	3.54	2.65	4.01	1.07	5.28	2.27	2.22
LDYNEYFRGLN [HPRT1_Y198_D201G]	0.812	0.445	0.865	1.95	2.67	0.733	1.85	3.42	1.06	0.892	1.6	2.6	2.77	1.28	0.847	1.37
LKEIHYPPFTD [ALDH3B2_Y362_YF]	0.644	0.505	0.922	0.9	0.819	0.329	0.555	0.659	0.413	0.401	0.437	0.437	0.474	0.425	0.559	0.541
FSNPAYFVLEG [INPPL1_Y986_N982S_YF]	0.973	1.85	0.928	0.895	1.01	3.43	4.24	3.86	0.564	0.809	0.416	0.451	6.43	0.642	0.865	0.548
DIPIRYSIMGV [CDH4_Y205_T208M]	2.51	1.31	0.894	1.14	1.13	0.523	0.695	1	0.421	0.448	0.455	0.352	0.481	0.473	0.723	0.603
DGMADCSDPSF [CDC5L_Y459_Y459C_YF]	0.853	0.635	0.984	1.29	1.21	0.525	0.701	1.01	0.627	0.582	0.524	0.6	0.533	0.627	1	0.659
HICTAYKLVLA [DHCR24_Y190_E191K]	0.56	0.45	0.867	2.86	1.88	0.832	2.2	1.88	1.52	1.34	1.3	1.47	2.66	1.49	0.969	1.53
DLEKTYNTYRS [B4GALNT2_Y538_A533D]	0.511	0.43	0.654	0.788	0.848	0.424	0.703	0.823	0.401	1.03	0.845	0.761	0.554	0.382	0.441	0.509

Continued, in another order:

SH2 binding enrichment (SHP2-C SH2)	SH2 binding enrichment (c-Src SH2)	SH2 binding enrichment (Grb2 SH2)	Sequence	phosphorylation enrichment (Fes)	phosphorylation enrichment (AncSZ)	phosphorylation enrichment (MERTK)	phosphorylation enrichment (FGFR3)	phosphorylation enrichment (Jak2)	phosphorylation enrichment (Fer (mouse))	phosphorylation enrichment (c-Src)	phosphorylation enrichment (Fyn)	phosphorylation enrichment (Hck)	phosphorylation enrichment (FGFR1)	phosphorylation enrichment (EPHB1)	phosphorylation enrichment (c-Abl (mouse))	phosphorylation enrichment (EPHB2)
0.819	0.556	1.13	HRGFLYLAIEF [TEK_Y899_Y897F_YF]	1.67	1.49	0.711	1.02	1.7	0.968	0.687	0.352	0.627	0.515	0.765	1.52	0.539
0.999	0.47	0.735	DAVAVYDGKIS [SH2D1A_Y7_H8D]	0.988	0.721	0.498	0.565	0.778	0.456	0.83	0.655	2.02	0.44	0.589	0.728	0.622
0.602	0.533	0.732	SLTGAYASGIP [POM121C_Y378_T379A]	0.906	0.627	0.436	0.602	0.904	0.453	0.482	0.478	0.575	0.519	0.518	0.647	0.43
0.522	0.386	0.774	SRNSKYNAEST [PSEN1_Y315_K311R]	0.441	0.512	0.464	0.376	0.489	0.347	0.378	0.366	0.323	0.378	0.328	0.497	0.46
0.728	0.946	0.73	SSFSRYIMMPN [LEF1_Y114_G113R_YF]	0.806	0.738	0.588	0.617	0.812	0.484	0.485	0.509	0.559	0.599	0.471	0.626	0.556
0.903	0.547	0.987	FADIAYNFRHA [PAH_Y166_G171A_YF]	0.591	0.661	0.388	0.462	0.524	0.348	0.473	0.497	0.432	0.386	0.293	0.506	0.342
1.16	0.562	3.9	ELTAKYLNFFQ [P3H4_Y181_YF]	1.05	0.871	0.385	0.681	0.908	0.517	0.454	0.458	0.396	0.438	0.564	0.765	0.479
0.649	0.406	0.835	EAMPDYKKQLR [SPATA18_Y229_S227P]	0.819	0.608	0.322	0.444	0.623	0.474	0.378	0.309	0.296	0.399	0.378	0.469	0.394
0.715	0.705	0.653	VYYGSYSCPYG [NKAP_Y104_R106C]	1.47	2.87	4.18	2.87	2.28	1.59	6.91	8.17	4.99	4.04	2.45	4.15	3.08
1.54	0.405	0.891	AQESNYRLLRQ [SLC20A2_Y377_R382Q]	0.737	0.616	0.488	0.445	0.754	0.479	0.397	0.391	0.478	0.411	0.785	0.634	0.534
0.673	0.71	0.843	LARNMYDKEYY [MET_Y1230_D1228N]	0.872	1.13	0.358	0.569	0.84	0.468	0.611	0.441	0.605	0.631	0.482	0.565	0.546
0.61	0.331	1.13	RFGKVYKGHLF [ROR2_Y488]	0.924	0.806	1.02	0.754	0.803	0.585	0.86	0.717	0.604	0.661	0.377	1.69	0.767
0.7	0.362	0.755	HAEERYGKELV [PSTPIP1_Y53_Q48H]	1.26	1.26	0.382	1.02	1.06	0.732	0.569	0.614	1.02	1.09	0.881	0.688	0.806
